Laboratory results reported in the supplement of paper PMC10724198.
± gives the standard deviation of the averaged measurements.

Key:
Saccharomyces cerevisiae [1] = experiment: protein stability index of tFT-peptide fusion (C-terminal peptide) (PSI (0-1 scale)); higher = more stable (slower turnover)
Description: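 MPS profiling in S. cerevisiae of the tFT-X12 degron library: putative degron peptides plus stable controls, 12 aa, fused to the C-terminus of a sfGFP-mCherry timer. Cells are FACS-sorted into 8 mCherry/sfGFP bins and deep-sequenced. PSI runs from 0 (unstable) to 1 (stable). Backgrounds are wild type, das1Δ and doa10Δ at 30 °C, and wild type, das1Δ, cdc34-1 and cdc53-1 at 37 °C; 2-3 technical replicates each.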

Saccharomyces cerevisiae [2] = experiment: as above; conditions: genetic background: wild type; temperature: 30 C
[3] = genetic background: cdc34-1, temperature: 37 C
[4] = genetic background: cdc53-1, temperature: 37 C
[5] = genetic background: das1 deletion, temperature: 30 C
[6] = genetic background: das1 deletion, temperature: 37 C
[7] = genetic background: doa10 deletion, temperature: 30 C
[8] = genetic background: wild type, temperature: 30 C
[9] = genetic background: wild type, temperature: 37 C
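Note: PSI is a weighted mean of sequencing reads over stability bins, variants kept only with over 10 reads, mCherry proximal and sfGFP distal, peptide attached via GGGS linker.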

| Sequence | protein stability index (Saccharomyces cerevisiae [1]; [3]) | protein stability index (Saccharomyces cerevisiae [1]; [4]) | protein stability index (Saccharomyces cerevisiae [1]; [5]) | protein stability index (Saccharomyces cerevisiae [1]; [6]) | protein stability index (Saccharomyces cerevisiae [1]; [7]) | protein stability index (Saccharomyces cerevisiae [1]; [8]) | protein stability index (Saccharomyces cerevisiae [1]; [9]) | protein stability index (Saccharomyces cerevisiae [2]) |
| --- | --- | --- | --- | --- | --- | --- | --- | --- |
| EDRKRNKERRWT | 0.679 ± 0.024 | 0.702 ± 0.013 | 0.642 ± 0.015 | 0.716 ± 0.0076 | 0.305 ± 0.0042 | 0.303 ± 0.027 | 0.57 ± 0.01 | 0.4256 ± 0.0024 |
| EFWWPFDRRGVI | 0.76 ± 0.037 | 0.807 ± 0.011 | 0.7244 ± 0.0059 | 0.83 ± 0.015 | 0.721 ± 0.029 | 0.7117 ± 0.0043 | 0.822 ± 0.012 | 0.748 ± 0.011 |
| EKKRERQKGEME | 0.656 ± 0.055 | 0.7542 ± 0.0053 | 0.6109 ± 0.0056 | 0.72 ± 0.027 | 0.627 ± 0.026 | 0.635 ± 0.014 | 0.717 ± 0.012 | 0.579 ± 0.12 |
| ETQKEKRENAKP | 0.649 ± 0.028 | 0.70222 ± 0.00044 | 0.646 ± 0.032 | 0.71 ± 0.035 | 0.6492 ± 0.0039 | 0.623 ± 0.016 | 0.677 ± 0.024 | 0.713 ± 0.0091 |
| EVGFHRRWVALS | 0.612 ± 0.052 | 0.7235 ± 0.007 | 0.65 ± 0.015 | 0.737 ± 0.019 | 0.114 ± 0.02 | 0.141 ± 0.016 | 0.275 ± 0.053 | 0.189 ± 0.0082 |
| EWGLGEIVVKVA | 0.563 ± 0.025 | 0.654 ± 0.013 | 0.534 ± 0.011 | 0.684 ± 0.015 | 0.138 ± 0.0032 | 0.162 ± 0.013 | 0.2153 ± 0.0017 | 0.259 ± 0.057 |
| FAFPTPPPLLFD | 0.68 ± 0.047 | 0.7511 ± 0.00095 | 0.693 ± 0.035 | 0.735 ± 0.0083 | 0.667 ± 0.0073 | 0.676 ± 0.0095 | 0.736 ± 0.013 | 0.751 ± 0.027 |
| FCGWLGVYLVKG | 0.5909 ± 0.001 | 0.6581 ± 0.00083 | 0.484 ± 0.026 | 0.656 ± 0.0023 | 0.481 ± 0.035 | 0.49 ± 0.015 | 0.668 ± 0.062 | 0.494 ± 0.076 |
| FCSFSWFLFLRS | 0.211 ± 0.0051 | 0.123 ± 0.023 | 0.329 ± 0.02 | 0.359 ± 0.0085 | 0.599 ± 0.01 | 0.337 ± 0.016 | 0.312 ± 0.022 | 0.405 ± 0.034 |
| FCVLLFCAVSDL | 0.289 ± 0.032 | 0.383 ± 0.03 | 0.239 ± 0.036 | 0.4433 ± 0.0013 | 0.212 ± 0.0092 | 0.24 ± 0.036 | 0.398 ± 0.0074 | 0.317 ± 0.03 |
| FCVVFFLSLVFL | 0.457 ± 0.01 | 0.491 ± 0.03 | 0.391 ± 0.027 | 0.511 ± 0.013 | 0.4225 ± 0.0026 | 0.386 ± 0.0062 | 0.49 ± 0.0029 | 0.495 ± 0.046 |
| FFDLSLYSLCLC | 0.623 ± 0.019 | 0.69 ± 0.059 | 0.466 ± 0.013 | 0.6476 ± 0.0029 | 0.229 ± 0.009 | 0.271 ± 0.029 | 0.4649 ± 0.0011 | 0.378 ± 0.064 |
| FFFFPVYFIFVV | 0.272 ± 0.014 | 0.288 ± 0.05 | 0.259 ± 0.02 | 0.409 ± 0.013 | 0.259 ± 0.01 | 0.232 ± 0.016 | 0.32 ± 0.0059 | 0.311 ± 0.0065 |
| FFFFSMFSFFIP | 0.503 ± 0.056 | 0.576 ± 0.0068 | 0.485 ± 0.017 | 0.564 ± 0.013 | 0.438 ± 0.013 | 0.466 ± 0.031 | 0.531 ± 0.0034 | 0.477 ± 0.054 |
| FFFVLVSGWWGV | 0.181 ± 0.0054 | 0.344 ± 0.059 | 0.237 ± 0.027 | 0.472 ± 0.044 | 0.205 ± 0.022 | 0.221 ± 0.021 | 0.374 ± 0.013 | 0.36 ± 0.041 |
| FFLDRLVIRLIA | 0.1487 ± 0.00028 | 0.173 ± 0.0047 | 0.248 ± 0.029 | 0.383 ± 0.0071 | 0.0576 ± 0.024 | 0.0715 ± 0.011 | 0.0735 ± 0.014 | 0.105 ± 0.052 |
| FFLFFLSFGCFL | 0.489 ± 0.078 | 0.533 ± 0.031 | 0.421 ± 0.029 | 0.5391 ± 0.0019 | 0.4551 ± 0.0028 | 0.459 ± 0.032 | 0.505 ± 0.016 | 0.529 ± 0.048 |
| FFLKPVPSLFLC | 0.388 ± 0.015 | 0.5971 ± 0.005 | 0.519 ± 0.021 | 0.6657 ± 0.0034 | 0.0796 ± 0.014 | 0.0677 ± 0.0064 | 0.0767 ± 0.016 | 0.14 ± 0.014 |
| FFLVLWSSLLSP | 0.457 ± 0.025 | 0.5545 ± 0.00086 | 0.378 ± 0.035 | 0.572 ± 0.006 | 0.3584 ± 0.0021 | 0.386 ± 0.033 | 0.5441 ± 0.0011 | 0.454 ± 0.036 |
| FFRPWRLVGCLV | 0.263 ± 0.0038 | 0.312 ± 0.011 | 0.265 ± 0.024 | 0.3692 ± 0.0036 | 0.189 ± 0.017 | 0.215 ± 0.018 | 0.266 ± 0.02 | 0.331 ± 0.065 |

| Sequence | protein stability index (Saccharomyces cerevisiae [1]; [3]) | protein stability index (Saccharomyces cerevisiae [1]; [4]) | protein stability index (Saccharomyces cerevisiae [1]; [5]) | protein stability index (Saccharomyces cerevisiae [1]; [6]) | protein stability index (Saccharomyces cerevisiae [1]; [7]) | protein stability index (Saccharomyces cerevisiae [1]; [8]) | protein stability index (Saccharomyces cerevisiae [1]; [9]) | protein stability index (Saccharomyces cerevisiae [2]) |
| --- | --- | --- | --- | --- | --- | --- | --- | --- |
| FFSFTVLVSYGF | 0.18 ± 0.011 | 0.256 ± 0.015 | 0.192 ± 0.025 | 0.34 ± 0.0067 | 0.186 ± 0.0095 | 0.187 ± 0.023 | 0.284 ± 0.0081 | 0.352 ± 0.017 |
| FFSLMFVFLTVF | 0.113 ± 0.018 | 0.131 ± 0.043 | 0.201 ± 0.03 | 0.276 ± 0.015 | 0.192 ± 0.0063 | 0.164 ± 0.02 | 0.23 ± 0.012 | 0.278 ± 0.033 |
| FFSLRRAVTVSA | 0.208 ± 0.013 | 0.217 ± 0.0034 | 0.212 ± 0.028 | 0.372 ± 0.0052 | 0.168 ± 0.0042 | 0.2 ± 0.029 | 0.3273 ± 0.002 | 0.349 ± 0.069 |
| FFSPFFFFLFRL | 0.306 ± 0.11 | 0.309 ± 0.0057 | 0.366 ± 0.035 | 0.453 ± 0.0074 | 0.483 ± 0.019 | 0.351 ± 0.0064 | 0.3971 ± 0.0026 | 0.414 ± 0.058 |
| FFVISVVLCLLV | 0.377 ± 0.015 | 0.48 ± 0.016 | 0.341 ± 0.022 | 0.447 ± 0.022 | 0.325 ± 0.0033 | 0.344 ± 0.019 | 0.434 ± 0.015 | 0.43 ± 0.0088 |
| FFVRSWWVELLF | 0.642 ± 0.029 | 0.719 ± 0.017 | 0.558 ± 0.026 | 0.682 ± 0.024 | 0.296 ± 0.0038 | 0.335 ± 0.031 | 0.5502 ± 0.0055 | 0.424 ± 0.0097 |
| FFYRFQDLPRIC | 0.681 ± 0.018 | 0.743 ± 0.037 | 0.651 ± 0.015 | 0.7358 ± 0.0068 | 0.191 ± 0.018 | 0.231 ± 0.035 | 0.537 ± 0.033 | 0.397 ± 0.074 |
| FGFFLFIFFFFR | 0.246 ± 0.044 | 0.295 ± 0.027 | 0.301 ± 0.032 | 0.429 ± 0.015 | 0.333 ± 0.0034 | 0.276 ± 0.039 | 0.349 ± 0.031 | 0.402 ± 0.12 |
| FGFFRLVIVCFR | 0.135 ± 0.046 | 0.19 ± 0.021 | 0.175 ± 0.032 | 0.313 ± 0.0089 | 0.176 ± 0.017 | 0.172 ± 0.019 | 0.283 ± 0.013 | 0.31 ± 0.16 |
| FGFWGVVSCCNA | 0.559 ± 0.045 | 0.566 ± 0.03 | 0.472 ± 0.02 | 0.599 ± 0.0011 | 0.459 ± 0.01 | 0.477 ± 0.011 | 0.5833 ± 0.0054 | 0.63 ± 0.18 |
| FGPRLLRVMRLL | 0.562 ± 0.017 | 0.712 ± 0.018 | 0.639 ± 0.018 | 0.7306 ± 0.0047 | 0.128 ± 0.017 | 0.157 ± 0.044 | 0.207 ± 0.061 | 0.22 ± 0.04 |
| FGVLFFVFVFVC | 0.149 ± 0.015 | 0.243 ± 0.051 | 0.193 ± 0.02 | 0.322 ± 0.011 | 0.112 ± 0.021 | 0.129 ± 0.022 | 0.203 ± 0.03 | 0.177 ± 0.024 |
| FGVLLVWWYGLF | 0.236 ± 0.016 | 0.367 ± 0.027 | 0.253 ± 0.05 | 0.4335 ± 0.0032 | 0.1894 ± 0.0014 | 0.204 ± 0.016 | 0.314 ± 0.0076 | 0.289 ± 0.039 |
| FGVSLFLPLSVV | 0.4023 ± 0.0021 | 0.415 ± 0.006 | 0.32 ± 0.026 | 0.46 ± 0.011 | 0.281 ± 0.0048 | 0.308 ± 0.023 | 0.4184 ± 0.0035 | 0.407 ± 0.017 |
| FIFYYTVLLLCR | 0.0366 ± 0.0015 | 0.0671 ± 0.0072 | 0.131 ± 0.024 | 0.171 ± 0.0048 | 0.13 ± 0.0087 | 0.115 ± 0.019 | 0.1312 ± 0.0012 | 0.181 ± 0.014 |
| FIICAASWFFLG | 0.456 ± 0.025 | 0.624 ± 0.032 | 0.474 ± 0.036 | 0.62 ± 0.02 | 0.109 ± 0.014 | 0.127 ± 0.016 | 0.225 ± 0.079 | 0.224 ± 0.025 |
| FILATGKGRWVV | 0.686 ± 0.044 | 0.776 ± 0.017 | 0.636 ± 0.0087 | 0.7432 ± 0.0033 | 0.266 ± 0.0031 | 0.306 ± 0.029 | 0.532 ± 0.024 | 0.333 ± 0.1 |
| FILSLSFVFSRP | 0.415 ± 0.037 | 0.501 ± 0.011 | 0.425 ± 0.027 | 0.462 ± 0.012 | 0.452 ± 0.039 | 0.441 ± 0.046 | 0.441 ± 0.026 | 0.405 ± 0.073 |
| FIRLTFLRLSCI | 0.546 ± 0.021 | 0.623 ± 0.03 | 0.51 ± 0.034 | 0.638 ± 0.031 | 0.183 ± 0.015 | 0.199 ± 0.0096 | 0.391 ± 0.0049 | 0.255 ± 0.022 |
